These results are taken from paper doi:10.1101/2020.08.17.254268.

In the assay the target is CeOSM-3 kinesin-2 motor, SNAP-tagged and labelled (CeOSM-3^SNAP647) (C. elegans) (UniProt P46873).
Chain of UniProt P46873 (P46873 whole entry): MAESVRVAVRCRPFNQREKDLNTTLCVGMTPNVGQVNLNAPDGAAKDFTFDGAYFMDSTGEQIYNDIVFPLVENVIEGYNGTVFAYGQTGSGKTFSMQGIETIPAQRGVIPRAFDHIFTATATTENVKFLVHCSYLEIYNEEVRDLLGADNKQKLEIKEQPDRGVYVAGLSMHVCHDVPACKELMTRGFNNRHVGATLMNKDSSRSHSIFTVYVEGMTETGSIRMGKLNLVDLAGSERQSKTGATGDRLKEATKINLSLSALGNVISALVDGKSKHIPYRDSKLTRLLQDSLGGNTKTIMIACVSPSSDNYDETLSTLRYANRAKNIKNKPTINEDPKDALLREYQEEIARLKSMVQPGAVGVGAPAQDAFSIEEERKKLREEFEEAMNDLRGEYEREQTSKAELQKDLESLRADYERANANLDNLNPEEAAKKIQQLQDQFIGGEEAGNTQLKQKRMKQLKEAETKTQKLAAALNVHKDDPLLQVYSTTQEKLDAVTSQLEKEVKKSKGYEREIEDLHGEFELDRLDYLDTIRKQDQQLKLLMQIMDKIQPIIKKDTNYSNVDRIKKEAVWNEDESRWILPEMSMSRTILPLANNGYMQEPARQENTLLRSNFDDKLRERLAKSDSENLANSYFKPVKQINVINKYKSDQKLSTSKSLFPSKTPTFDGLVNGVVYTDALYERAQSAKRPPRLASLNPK

“MmIFT-52^GFP/IFT-70^SNAP647 adaptor (from UniProt Q62559 1-426; Q99J38 1-664) (complex)” came in with a runlength of CeOSM-3 with MmIFT-52/IFT-70 in the single-molecule transport assay of 3 μm and a velocity of CeOSM-3 with MmIFT-52/IFT-70 in the single-molecule transport assay of 1.72 μm/s.
